Assay results taken from the DeepSol protein solubility set.

test: soluble on expression in E. coli; label from the status in PepcDB or PDB records

Sequence	soluble on expression in E. coli
MALQNISQNDFALHVQKAEQKSFMQTLEMAKLLSKRGFTLNYIAWLENGTIEISAILYSMPMTGGRYFEINCGPVVTRDKHLTDFYRELKDYVKEKGALELVIKPYDTYQTFDGDGQATSAEKKELISQLTNLGYHFDGLQRDYPNGEPDWHYVKDLSDISEQTLLKSFSKKGRPLVKKAKTFGTKLRRLNRDELNLFKEITSATSDRREYSDKSLDYYQDFYDSFGNNAEFMIASLNFENYLSHLQRDQNKLGNKIAKLQADLEKNPHSEKKQNQLRELSSQFDTFTTRQEEAQKFITKYGKKDVILAGSLFVYTPQEAVYLFSGSYPEFNKFYAPALLQEHVMLEALKRGISFYNLLGITGHFDNSDGVLRFKQNFNGYIVRKMGTFHYYPNPLKYRLLNTIKKILRR	not soluble
GGKFVQAWSQFPAGKWGVEPNPVSVVPTHGEVLNDGKVKEVPWVLELTPMPVSGTTVGKDGINPDEPMTLETVDRFAREIGFKGRYQLNLPKGEDGVWTLSQDSMSYDMISPFADRTVHIDQYSGKILADIRFDDYNPFGKFMAASIALHMGTLG	not soluble
MSLAYQALYRVFRPQSFQDVVGQEHVTKTLKNAIVQNKTSHAYLFSGPRGTGKTSAAKIFAKAINCEHGHDGEPCNECEICKGTTDGSIPDVLEIDAASNNGVEEIRDIREKVKYAPTVAKYKVYIIDEVHMLSTGAFNALLKTLEEPPKHVIFILATTEPHKLPLTIISRVQRFDFKRITTQDIIGRLKFILEEEKIPYDEKALMIVARAAEGGMRDALSLLDQVISYGSEEVTVEDALEITGSVAQNLLTKLVSAAFDGDAAEAISTLTALLAEGKDPVRLVEDLLVFFRDVLLYQKAPNLEETLERALIDDDFVALAKRADSLKVYEFVKILNTAQQQMRFSNHPGIYVEVALIQLTQAGEGHHHHHH	soluble
MGSDKIHHHHHHMRVALLMGGVSREREISLRSGERVKKALEKLGYEHTVFDVREDFLKKVDQLKSFDVVFNVLHGTFGEDVTLQAILDFLGIRYTGSDAFSSMICFDKLVTYRFLKGTVEIPDFVEIKEFMKTSPLGYPCVVKPRREGSSIGVFVCESDEEFQHALKEDLPRYGSVIVQKYIPGREMTVSILETEKGFEILPVLELRPKRRFYDYVAKYTKGETEFILPAPLNPSEERLVKEMALKAFVEAGCRGFGRVDGIFSDGRFYFLEINTVPGLTETSDLPASAKAGGIEFEELVEIILKSAFLKEGVRV	not soluble
QVKLLESGPELVKPGASVKMSCKASGYTFTSYVMHWVKQKPGQGLEWIGYINPYNDGTKYNEKFKGKATLTSDKSSSTAYMELSSLTSEDSAVYYCVRGGYRPYYAMDYWGQGTSVTVSSAKTTPPSVYPLAPGSAAQTNSMVTLGCLVKGYFPEPVTVTWNSGSLSSGVHTFPAVLQSDLYTLSSSVTVPSSTWPSETVTCNVAHPASSTKVDKKIVPRDCTSHHHHHH	soluble
MGSDKIHHHHHHMFEKRHRITLLFNANKAYDRQVVEGVGEYLQASQLEWDIFIEEDFRARIENIKEWLGDGVIADYDDPEIEKLLADVHVPIVGVGGSYHQPEQYPPVHYIATDNAALVESAFLHLKEKGVHRFAFYGLPASSGKRWAVEREYAFCQLVAKEKYRGVVYQGLETAPENWQHAQNRLADWLQTLPPQTGIIAVTDARARHVLQACELLHIPVPEKLCVIGIDNEELTRYLSRVALSSVAQGTRQMGYQAAKLLHRLLNNEALPLQRQLIPPMRVVERRSTDYRSLNDPSVIQAMHYIRNNACKGIKVEQVLDAVGISRSNLEKRFKEEVGETIHTVIHSEKLEKARSLLVSTSLSINEISQMCGYPSLQYFYSVFKKEYDVTPKEYRDRHSEVML	not soluble
QESVEDSLATVKVVLIPVGQEIVIPFKVDTILKYLKDHFSHLLGIPHSVLQIRYSGKILKNNETLVQHGVKPQEIVQVEIFSTNPDLYPVRRIDGLTDVSQIITV	soluble
MGSDKIHHHHHHMNNPISDDYRNLLVEVKQRIRSAQYEALKAVNKELIALYWDIGKMIVTQQQEADWGKSVVEQLAKDLQTEFPGISGFSTRNMWNMRSFYIAYSQNEKLQPLVAEIGWTHNIVILEKCKDDLEREFYLRMTRKFGWTKNVLIHQIENQTYEKTLLNQTNFNQTVPAEIRNQLKLAVKDEYTFDFLELADEHSERQLEQAILARVEPFLQEMGGRFTFVGSQYRLEIGDQEFFIDLLLYHRQLKCLVAVELKTGEFLPEYVGKMQFYLAALDDLSRLPDENLSIGIILCKSKNKTIVEYALRESNKPIGVATYKVFSSLPQDLRNQLPAPEQVAKLLEGVE	not soluble
MSVSRRDVLKFAAATPGVLGLGVVASSLRAAPASAGSLGTLLDYAAGVIPASQIRAAGAVGAIRYVSDRRPGGAWMLGKPIQLSEARDLSGNGLKIVSCYQYGKGSTADWLGGASAGVQHARRGSELHAAAGGPTSAPIYASIDDNPSYEQYKNQIVPYLRSWESVIGHQRTGVYANSKTIDWAVNDGLGSYFWQHNWGSPKGYTHPAAHLHQVEIDKRKVGGVGVDVNQILKPQFGQWA	not soluble
DGFRIAFISDLHYKSLFKEKGLESLVRLLNAQHADVLLMGGDYQEGCQYVPELFAALAKVKTPMGTYGVMGNNDYERCHDEIIREMQRYGMRPLEHQIDTLRRDGAQIILAGVRNPFDLANNGVSPTLSLSPSDFVILLVHTPDYAEDVSVANSDLVLAGHTHGGQVRILGYAPIIPSHYGSRF	not soluble
MGSDKIHHHHHHMSTLENVHASPIHFMSKPAEIEHTQRPLNEASHAPGYIYGDPDVLRREKERIFMKDWLCIAHVDELPNPGDFVTHTVIDEPVLIVRNRSGVLQAFYNQCRHRGVEVAEGRGNAKIFKCPYHAWSYDLDGKLIGVPFMKEAQGFDQKNCSLKPVRLDTWGGFIHISFDPDAEPLSSYMAEYEQEFGMLRQGELRLGLRWETDFDCNWKFVYENLMDIYHVGVTHADTIGRYQDQSSYRYLQLPRGRASIHYRAKTMSETGSSLFGRLPWIDDDSFARIGYLPPNLTMLARCDYVRPVTHWPTAVNRTHSVAYFLFPEDKIADPQFQEKIQTYVKFVEQVLDEDRGMILSLQRAMNTRGFEPGRMSFMENAIHHALGYHLERLFGPQSA	not soluble
MGSDKIHHHHHHMPYTTYRQQAVDEQTLAQTELNQYIADQAQVIAPEEYTSVEINFYYHEIYISSQLIAQIAYDHNEFVTQRWLVLVNDKEEFRANTWAKCYRYICTHHKDGSLPVQERETPAATTGNEIMVQIADECENLGLELLEDGIYRGDQKLGKAGQTNGNWWFIRTDDATQQQRFCNSASDAMWLVSRAELPEYTDTLNEYLQYRPLEQMPSVELKHLLDSAELTAA	not soluble
MSLKEISVVLVGIGGYGNKYVEYILREGREKGVRISGVVDPYPQNSRFYDELRSLNVPMYNTLEEFYSHHTADLAIISSPIHYHCEQTCTAVRNGSHVLCEKPAAATVKEVKKMIECREKYGKIVAIGYQWSYNPAVLKLKEDILAGKFGKPVLFKTLVLWPRDTAYYRRNSWAGKLKVNNRWVLDSVAGNATAHFLHNMLFLLGEKMEESAYPESMVAELYRANDIESFDTCALKMTVRKIPVLFFATHAVKERKGPVFEYRFEKARVICNYPEYPESEENLLVVYEDGRKEIYGPTDHGSMRKLWVVVDAARGRKEFICTLESAMAHTIAINGAHVSMKEIQDFPTELKRVEGEPPMIWVEGLKEAMERAYEEEKIFSELNLPWAKRGEEVKLENFEGLEGEITEGHHHHHH	soluble
MSNDQIWDLLGHQIQIELDTGDVRRQESTTGHLMTRDPVSQSLLIAKIEENSTSIKSIEWIPSCSVKSIRKLKNTENPEIHVAIEKYFENDGIEGGSSGAEDSEEDIKKRAHRVVNYLKSHHLDVVEKPNGTYIIAGTVRFERPYHNANLYCDIPIVLKRILKLVEEI	not soluble
MGKKYKNIVLLKGLEVINDYHFRMVKSLLSNDLKLNLKMREEYDKIQIADLMEEKFRGDAGLGKLIKIFEDIPTLEDLAETLKKEKLKVKGPALSRKRKKEVDATSPAPSTSSTVKTEGAEATPGAQKRKKSTKEKAGPKGSKVSEEQTQPPSPAGAGMSTAMGRSPSPKTSLSAPPNTSSTENPKTVAKCQVTPRRNVLQKRPVIVKVLSTTKPFEYETPEMEKKIMFHATVATQTQFFHVKVLNTSLKEKFNGKKIIIISDYLEYDSLLEVNEESTVSEAGPNQTFEVPNKIINRAKETLKIDILHKQASGNIVYGVFMLHKKTVNQKTTIYEIQDDRGKMDVVGTGQCHNIPCEEGDKLQLFCFRLRKKNQMSKLISEMHSFIQIKKKTNPRNNDPKSMKLPQEQSQLPNPSEASTTFPESHLRTPQMPPTTPSSSFFTKKSEDTISKMNDFMRMQILKEGSHFPGPFMTSIGPAESHPHTPQMPPSTPSSSFLTTLKPRLKTEPEEVSIEDSAQSDLKEVMVLNATESFVYEPKEQKKMFHATVATENEVFRVKVFNIDLKEKFTPKKIIAIANYVCRNGFLEVYPFTLVADVNADRNMEIPKGLIRSASVTPKINQLCSQTKGSFVNGVFEVHKKNVRGEFTYYEIQDNTGKMEVVVHGRLTTINCEEGDKLKLTCFELAPKSGNTGELRSVIHSHIKVIKTRKNKKDILNPDSSMETSPDFFF	soluble
MPGFSALSGGDKRQPEVNIGVVGHVDHGKTTLVQALTGVWTMRHSEEIRRGMTIKLGYADGEVWECEGCGFPERFSPEPVCECDPQASASLRRRVSYVDAPGHEILMATMLSGAALMDGALLVVAANEPCPQPQTKEHLVALEIIGIKNIVIVQNKVDVVSRERAKESYQEILNFIKGTIAEGSPIIPVSALKRANIDAVLAAIEKFIPTPPRDLDKPPVMYISRSFDVNRPGTPPERLVGGVVGGSIIQGVFRVGDEIEISPGVAVRKPGGRVEYVRLHTTITSLRFGSIEVEEARPGGLVAIGTQLDPSVTKADNLVGNVVGKPGELPEPLTTLRIEHHLLEKVVGMKEEARVEPIRRGEMLMLSVGTAITLGVVTRAGKDEIEVQLRRPVVTWPKARVALSRRIMGRWRLIGWGLIK	soluble
MSAATPLIVQQAEAEQLLARIDVLQAMRQLFLDLAAGQALQPAQQLVEFPAGRGDFINYLGVLAQEQVYGVKTSPYIVREQGPLVTAWTLLMSMQTGQPLLLCDAARLTTARTAATTAVAVDALAPAEACRLALIGSGPVAHAHLQYVKGLRDWQGVRVHSPCLDERRLQSLRAIDPRAEAAGSLEEALDEADVILLCTSSARAVIDPRQLKRPALVTSISTNAPRAHEVPAESLAAMDVYCDYRHTTPGSAGEMLIAAEQHGWSPEAIRGDLAELLSAQAPRPEYRRPAFFRSIGLGLEDVALANALYRLRQAG	not soluble
SADHDLFRETVYAESLDEALERYSVDTVGDSELATLLPHIEKTFGFPTWAQINEALDTYPDREFVNTVTELLSTANPESLVAAVELMVASARSTTLREELDHEVVLGEYIRSRPNFAEGVRAVLVDKDRNADFTPATTGEVDVTPMRKLLKN	not soluble
MGSDKIHHHHHHMQQPLAYRMRPRHLDEVVGQQHLVGPGKIIRRMVEAKMLSSMILYGPPGTGKTSIASAIAGSTNYAFRMLNAATDTKKDLQIVAEEAKMSGTVILLLDEIHRLDKTKQDFLLPHLENGRIIMIGATTENPYITINPAIRSRTQIFEVKPLTETDIQQAIQEALTDSTRGLGDYPVHLEEKALQHLTRATNGDLRSALNGLELAVKSTPKNEQGEIKITLPIIEECVQRKALTHVKDGDAHYDVISAFQKSIRGSDVDAALHYLGRLVEAGDLPIICRRLMVIAYEDIGLGNPAAAARTVTAVQAAEKLGFPEARIPLASVVIDLCLSPKSNSAVTAIDAALADIRQGSVGDVPDHLRDAHYAGAKELNRGIGYQYPHNFENGWVNQQYLPDKLKEARYYEPIDIGKYEQALHQQLKRIQEWKQKK	not soluble
